Laboratory results from patent publication US20220088148A1 (HANMI PHARM, published 2022).
Bridges are numbered along the chain shown (N, C = ends). Where no end group is shown, it is not given here. [ ]: non-standard residue; d: D form. Aib = CC(C)(N)C(=O)O

Biological target: T1, human GIP receptor (human, UniProt P48546 22-466)
T1 sequence (looked up): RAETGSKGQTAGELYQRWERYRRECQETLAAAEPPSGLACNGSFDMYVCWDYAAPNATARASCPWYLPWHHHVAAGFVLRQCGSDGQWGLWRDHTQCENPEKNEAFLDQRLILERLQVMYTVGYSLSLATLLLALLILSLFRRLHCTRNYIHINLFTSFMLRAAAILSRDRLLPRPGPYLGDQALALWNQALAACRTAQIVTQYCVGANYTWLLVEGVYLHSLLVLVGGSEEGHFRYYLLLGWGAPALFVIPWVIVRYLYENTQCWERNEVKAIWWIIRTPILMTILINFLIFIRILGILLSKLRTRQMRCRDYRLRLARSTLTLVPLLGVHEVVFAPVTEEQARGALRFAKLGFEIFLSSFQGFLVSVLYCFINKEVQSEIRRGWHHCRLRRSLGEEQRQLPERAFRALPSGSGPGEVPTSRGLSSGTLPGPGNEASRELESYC
Experiment: cell-based or functional assay

| Binder | In vitro activity (%) vs. GIP, cAMP EC50 |
| --- | --- |
| Y[Aib]QGTFTSDYSKYLDECRAKEFVQWLLAQKGKKNDWKHNIT (bridge 16-20) [triple agonist of SEQ ID NO: 23] | < 0.1% |
| H[Aib]QGTFTSDVSSYLLGQAAKQFIAWLVKGGGPSSGAPPPSC [triple agonist of SEQ ID NO: 3] | < 0.1% |
| H[Aib]QGTFTSDYSKYLDEKRAQEFVCWLLAQKGKKNDWKHNIT [triple agonist of SEQ ID NO: 28] | < 0.1% |
| H[Aib]QGTFTSDYSKYLDEKAAKEFVQWLLNTC (bridge 16-20) [triple agonist of SEQ ID NO: 29] | < 0.1% |
| H[Aib]QGTFTSDYSKYLDEKAQKEFVQWLLDTC (bridge 16-20) [triple agonist of SEQ ID NO: 30] | 0.8% |
| H[Aib]QGTFTSDYSKYLDEKACKEFVQWLLAQ (bridge 16-20) [triple agonist of SEQ ID NO: 31] | 2.4% |
| H[Aib]QGTFTSDYSIAMDEIHQKDFVNWLLAQKC (bridge 16-20) [triple agonist of SEQ ID NO: 33] | 10.4% |

Biological target: human GLP-1 receptor (human, UniProt P43220 24-463)
Experiment: cell-based or functional assay

| Binder | In vitro activity (%) vs. GLP-1, cAMP EC50 |
| --- | --- |
| Y[Aib]QGTFTSDYSKYLDECRAKEFVQWLLAQKGKKNDWKHNIT (bridge 16-20) [triple agonist of SEQ ID NO: 23] | 4.01% |
| H[Aib]QGTFTSDVSSYLLGQAAKQFIAWLVKGGGPSSGAPPPSC [triple agonist of SEQ ID NO: 3] | 1.8% |
| H[Aib]QGTFTSDYSKYLDEKRAQEFVCWLLAQKGKKNDWKHNIT [triple agonist of SEQ ID NO: 28] | 17.2% |
| H[Aib]QGTFTSDYSKYLDEKAAKEFVQWLLNTC (bridge 16-20) [triple agonist of SEQ ID NO: 29] | 38.5% |
| H[Aib]QGTFTSDYSKYLDEKAQKEFVQWLLDTC (bridge 16-20) [triple agonist of SEQ ID NO: 30] | 142% |
| H[Aib]QGTFTSDYSKYLDEKACKEFVQWLLAQ (bridge 16-20) [triple agonist of SEQ ID NO: 31] | 135% |
| H[Aib]QGTFTSDYSIAMDEIHQKDFVNWLLAQKC (bridge 16-20) [triple agonist of SEQ ID NO: 33] | 24.5% |

Biological target: human GCG receptor (human, UniProt P47871 26-477)
Experiment: cell-based or functional assay

Chain of human GCG receptor (P47871 26-477): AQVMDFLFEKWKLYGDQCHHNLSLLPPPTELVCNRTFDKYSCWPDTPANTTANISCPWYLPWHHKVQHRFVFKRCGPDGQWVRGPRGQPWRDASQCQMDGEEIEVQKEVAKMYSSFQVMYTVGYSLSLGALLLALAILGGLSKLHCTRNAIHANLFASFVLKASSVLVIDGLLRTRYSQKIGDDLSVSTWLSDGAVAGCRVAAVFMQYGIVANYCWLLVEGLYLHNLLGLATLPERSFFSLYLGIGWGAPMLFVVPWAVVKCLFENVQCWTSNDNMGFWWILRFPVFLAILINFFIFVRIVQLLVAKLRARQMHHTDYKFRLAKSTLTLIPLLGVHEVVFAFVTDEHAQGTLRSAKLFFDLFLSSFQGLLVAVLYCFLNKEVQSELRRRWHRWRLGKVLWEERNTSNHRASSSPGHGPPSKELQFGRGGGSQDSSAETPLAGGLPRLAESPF

| Binder | In vitro activity (%) vs. Glucagon, cAMP EC50 |
| --- | --- |
| Y[Aib]QGTFTSDYSKYLDECRAKEFVQWLLAQKGKKNDWKHNIT (bridge 16-20) [triple agonist of SEQ ID NO: 23] | 9.3% |
| H[Aib]QGTFTSDVSSYLLGQAAKQFIAWLVKGGGPSSGAPPPSC [triple agonist of SEQ ID NO: 3] | < 0.1% |
| H[Aib]QGTFTSDYSKYLDEKRAQEFVCWLLAQKGKKNDWKHNIT [triple agonist of SEQ ID NO: 28] | 1.6% |
| H[Aib]QGTFTSDYSKYLDEKAAKEFVQWLLNTC (bridge 16-20) [triple agonist of SEQ ID NO: 29] | 6% |
| H[Aib]QGTFTSDYSKYLDEKAQKEFVQWLLDTC (bridge 16-20) [triple agonist of SEQ ID NO: 30] | 0.7% |
| H[Aib]QGTFTSDYSKYLDEKACKEFVQWLLAQ (bridge 16-20) [triple agonist of SEQ ID NO: 31] | 2.2% |
| H[Aib]QGTFTSDYSIAMDEIHQKDFVNWLLAQKC (bridge 16-20) [triple agonist of SEQ ID NO: 33] | < 0.1% |
